How the values were obtained:
human thrombin (human) [1] = target: human thrombin (human)
human thrombin (human) [2] = target: human thrombin (human); remark: listed apart in the source

“Serp-1, secreted myxoma viral serpin (recombinant) (from UniProt P12393 1-369) (natural protein)” showed an inhibition of thrombin (0.125 NIH units) by Serp-1 at 500 ng over 1 to 20 minutes, no heparin, discontinuous chromogenic assay (human thrombin (human) [1]) of 86%, an inhibition of thrombin activity (chromogenic substrate S-2238), 19 ng Serp-1 in the presence of heparin (0.2 IU), thrombin 0.002 NIH units (human thrombin (human) [2]) of 75% and an inhibition of thrombin activity (chromogenic substrate S-2238), no heparin, thrombin 0.002 NIH units, Serp-1 1250, 600 and 300 ng (75%, 65%, 25%); no inhibition at or below 150 ng (human thrombin (human) [2]) of 75%.
